B2: HA-His-NHR-R135A (enzyme, Streptomyces actuosus, UniProt P52391 1-274, looked up)
chain: MTEPAIITNASDPAVQRIIDVTKHSRASIKTTLIEDTEPLMECIRAGVQFIEVYGSSGTPLDPALLDLCRQREIPVRLIDVSIVNQLFKAERKAKVFGIARVPRPARLADIAERGGDVVVLDGVKIVGNIGAIVATSLALGAAGIVLVDSDLATIADRRLLRASRGYVFSLPVVLADREEAVSFLRDNDIALMVLDTDGDLGVKDLGDRADRMALVFGSEKGGPSGLFQEASAGTVSIPMLSSTESLNVSVSVGIALHERSARNFAVRRAAAQA
notes: nosiheptide resistance methyltransferase (NHR), Streptomyces actuosus; Homodimer when alone; in the heterodimer with Flag-Trx-His-NHR one chain of each construct; also called HA-NHR-R135A; HA-R135A-NHR; source: site-directed mutagenesis of His-NHR, HA tag added by PCR; purified (Ni-NTA, gel filtration); not shown: His6, N-terminal, kept

Series [1] concerns the molecule itself. Nature of the series: native gel or EMSA; differently tagged (short and long) NHR proteins mixed at 4°C overnight, then incubated with 58 nt or 29 nt RNA (6-10 μM RNA, 2-10 μM protein) for 1 hour at 4°C in 25 mM Hepes-KOH, 25 mM NH4Cl, 5 mM MgCl2, 5 mM DTT, pH 8.0; 6% polyacrylamide native gel, SYBR Gold; dimers seen as RNA-protein complexes. On the technique in general: In EMSA bound probe runs differently from free probe, usually more slowly.

The series “HA-His-NHR-R135A” deals with B2. The series is described as above. The settings on record: both partners purified.

B1: N-terminal hexahistidine tagged nosiheptide resistance methyltransferase (His-NHR) (enzyme, Streptomyces actuosus, UniProt P52391 1-274, looked up)
chain: MTEPAIITNASDPAVQRIIDVTKHSRASIKTTLIEDTEPLMECIRAGVQFIEVYGSSGTPLDPALLDLCRQREIPVRLIDVSIVNQLFKAERKAKVFGIARVPRPARLADIAERGGDVVVLDGVKIVGNIGAIVRTSLALGAAGIVLVDSDLATIADRRLLRASRGYVFSLPVVLADREEAVSFLRDNDIALMVLDTDGDLGVKDLGDRADRMALVFGSEKGGPSGLFQEASAGTVSIPMLSSTESLNVSVSVGIALHERSARNFAVRRAAAQA
notes: nosiheptide resistance methyltransferase (NHR), Streptomyces actuosus; wild type; Homodimer when alone; in the heterodimer with Trx-NHR one chain of each construct; also called NHR(S); short, S; source: over expressed from pET-28a-NHR, purified (Ni-NTA, gel filtration); not shown: His6, N-terminal, kept
With B1, the “stoichiometry N” value in series [1] turned out to be 2.

As for B2, in series [1], the “stoichiometry N” value worked out at 2.

B3: thioredoxin tagged nosiheptide resistance methyltransferase (Trx-NHR) (enzyme, Streptomyces actuosus, UniProt P52391 1-274, looked up)
chain: MTEPAIITNASDPAVQRIIDVTKHSRASIKTTLIEDTEPLMECIRAGVQFIEVYGSSGTPLDPALLDLCRQREIPVRLIDVSIVNQLFKAERKAKVFGIARVPRPARLADIAERGGDVVVLDGVKIVGNIGAIVRTSLALGAAGIVLVDSDLATIADRRLLRASRGYVFSLPVVLADREEAVSFLRDNDIALMVLDTDGDLGVKDLGDRADRMALVFGSEKGGPSGLFQEASAGTVSIPMLSSTESLNVSVSVGIALHERSARNFAVRRAAAQA
notes: nosiheptide resistance methyltransferase (NHR), Streptomyces actuosus; wild type; Homodimer when alone; in the heterodimer with His-NHR one chain of each construct; Named Trx-His-NHR in the methods; also called Trx-His-NHR; NHR(L); source: over expressed from pET-32M-NHR, purified (Ni-NTA, gel filtration); not shown: thioredoxin, N-terminal, kept
For the molecule B3, in series [1], the “stoichiometry N” value turned out to be 2.

B4: Flag-Trx-His-NHR (enzyme, Streptomyces actuosus, UniProt P52391 1-274, looked up)
chain: MTEPAIITNASDPAVQRIIDVTKHSRASIKTTLIEDTEPLMECIRAGVQFIEVYGSSGTPLDPALLDLCRQREIPVRLIDVSIVNQLFKAERKAKVFGIARVPRPARLADIAERGGDVVVLDGVKIVGNIGAIVRTSLALGAAGIVLVDSDLATIADRRLLRASRGYVFSLPVVLADREEAVSFLRDNDIALMVLDTDGDLGVKDLGDRADRMALVFGSEKGGPSGLFQEASAGTVSIPMLSSTESLNVSVSVGIALHERSARNFAVRRAAAQA
notes: nosiheptide resistance methyltransferase (NHR), Streptomyces actuosus; wild type; Homodimer when alone; in the heterodimer with HA-His-NHR-R135A one chain of each construct; also called Flag-NHR; Flag-Trx-NHR; source: Flag tag added to Trx-His-NHR by PCR; purified (Ni-NTA, gel filtration); not shown: thioredoxin, N-terminal, kept
As for B4, the binding result with HA-His-NHR-R135A is “binds”. Moreover, the “stoichiometry N” value in series [1] was 2.

As a reminder, the stoichiometry N is a count of units in the complex or per binding partner.

The values above are taken from paper PMC4409310, “Substrate Recognition and Modification by the Nosiheptide Resistance Methyltransferase” (PLoS ONE, 2015).
